Source: patent US20210087281A1 (AGOMAB THERAPEUTICS, published 2021)

How the values were obtained:
[1] = biological target: T1, human MET-Fc (R&D Systems) (human, UniProt P08581 25-932); experiment: competition ELISA, hMET-Fc in solid phase, competitor 0.3 nM biotinylated hHGF
T1 construct: extracellular domain; bought chimeric protein; also called hMET; not shown: Fc portion of human IgG1
Protocol: (§1) To investigate along this line, we tested the competition between mAbs and HGF by ELISA. Recombinant human and mouse HGF (R&D Systems) were biotinylated at the N-terminus using NHS-LC-biotin (Thermo Scientific). MET-Fc protein, either human or mouse (R&D Systems), was immobilized in solid phase and then exposed to 0.3 nM biotinylated HGF, either human or mouse, in the presence of increasing concentrations of antibodies (0-120 nM).
(§2) A MET-Fc chimeric protein (either human or mouse) was immobilized in solid phase and exposed to a fixed concentration of biotinylated HGF (either human or mouse), in the presence of increasing concentrations of antibodies. […] Antibody-HGF competition is expressed as IC₅₀ (the concentration that achieves 50% competition) and IMAX (the maximum % competition reached at saturation).

[2] = biological target: T2, native mouse MET on living cells (mouse, UniProt P16056 25-1379); experiment: flow cytometry, MLP29 cells
T2 construct: whole, on cells; also called Mouse cells (MLP29); mouse epithelial cells expressing MET
Protocol: (§3) We also analysed whether chimeric anti-MET antibodies bound to native human and mouse MET in living cells. […] Antibody binding to cells was analysed by flow cytometry using phycoerythrin-conjugated anti-human IgG1 antibodies (eBioscience) and a CyAn ADP analyser (Beckman Coulter). As a positive control for human MET binding, we used a commercial mouse anti-human MET antibody (R&D Systems) and phycoerythrin-conjugated anti-mouse IgG1 antibodies (eBioscience).
(§4) As a positive control for mouse MET binding we used a commercial goat anti-mouse MET antibody (R&D Systems) and phycoerythrin-conjugated anti-goat IgG1 antibodies (eBioscience). […] Consistent with the data obtained in ELISA, maximal binding (EMAX) varied depending on antibody, but was similar in human and mouse cells.

[3] = biological target: T3, native human MET on living cells (human, UniProt P08581 25-1390); experiment: cell-based or functional assay
[4] = biological target: T2, native mouse MET on living cells; experiment: cell-based or functional assay
[5] = biological target: T3, native human MET on living cells; experiment: cell-based or functional assay; remark: listed apart in the source
[6] = biological target: T2, native mouse MET on living cells; experiment: cell-based or functional assay; remark: listed apart in the source
[7] = biological target: T3, native human MET on living cells; experiment: flow cytometry, A549 cells
Protocol: as §3, §4

[8] = biological target: T3, native human MET on living cells; experiment: cell-based or functional assay; remark: listed apart in the source
[9] = biological target: T2, native mouse MET on living cells; experiment: cell-based or functional assay; remark: listed apart in the source
[10] = biological target: T4, mouse MET-Fc (R&D Systems) (mouse, UniProt P16056 25-929, limits assumed); experiment: competition ELISA, mMET-Fc in solid phase, competitor 0.3 nM biotinylated mHGF
T4 construct: bought chimeric protein; also called mMET; not shown: Fc part
Protocol: as §1, §2

[11] = biological target: T5, mouse MET ECD (mouse, UniProt P16056 25-931); experiment: ELISA, MET ECD in solid phase, mAb 0-20 nM
T5 construct: range 1-931; recombinant ECD made by the applicants; the stated range begins at residue 1; also called mMET; mMET ECD
Protocol: (§5) Production (by transient transfection of mammalian cells) and purification (by protein A affinity chromatography) of the resulting chimeric llama-human IgG1 molecules was outsourced to U-protein Express. Binding of chimeric mAbs to MET was determined by ELISA using hMET or mMET ECD in solid phase and increasing concentrations of antibodies (0-20 nM) in solution. […] Binding capacity (EMAX) varied from antibody to antibody, possibly due to partial epitope exposure in the immobilized antigen, but was similar in the human and mouse setting.

[12] = biological target: T6, human MET ECD (human, UniProt P08581 25-932); experiment: ELISA, MET ECD in solid phase, mAb 0-20 nM
T6 construct: range 1-932; recombinant ECD made by the applicants; the stated range begins at residue 1, so it includes the signal peptide of the entry; also called hMET; hMET ECD
Protocol: as §5

[13] = biological target: T3, native human MET on living cells; experiment: cell-based or functional assay; remark: listed apart in the source
[14] = biological target: T2, native mouse MET on living cells; experiment: cell-based or functional assay; remark: listed apart in the source

T3 sequence (P08581 25-1390): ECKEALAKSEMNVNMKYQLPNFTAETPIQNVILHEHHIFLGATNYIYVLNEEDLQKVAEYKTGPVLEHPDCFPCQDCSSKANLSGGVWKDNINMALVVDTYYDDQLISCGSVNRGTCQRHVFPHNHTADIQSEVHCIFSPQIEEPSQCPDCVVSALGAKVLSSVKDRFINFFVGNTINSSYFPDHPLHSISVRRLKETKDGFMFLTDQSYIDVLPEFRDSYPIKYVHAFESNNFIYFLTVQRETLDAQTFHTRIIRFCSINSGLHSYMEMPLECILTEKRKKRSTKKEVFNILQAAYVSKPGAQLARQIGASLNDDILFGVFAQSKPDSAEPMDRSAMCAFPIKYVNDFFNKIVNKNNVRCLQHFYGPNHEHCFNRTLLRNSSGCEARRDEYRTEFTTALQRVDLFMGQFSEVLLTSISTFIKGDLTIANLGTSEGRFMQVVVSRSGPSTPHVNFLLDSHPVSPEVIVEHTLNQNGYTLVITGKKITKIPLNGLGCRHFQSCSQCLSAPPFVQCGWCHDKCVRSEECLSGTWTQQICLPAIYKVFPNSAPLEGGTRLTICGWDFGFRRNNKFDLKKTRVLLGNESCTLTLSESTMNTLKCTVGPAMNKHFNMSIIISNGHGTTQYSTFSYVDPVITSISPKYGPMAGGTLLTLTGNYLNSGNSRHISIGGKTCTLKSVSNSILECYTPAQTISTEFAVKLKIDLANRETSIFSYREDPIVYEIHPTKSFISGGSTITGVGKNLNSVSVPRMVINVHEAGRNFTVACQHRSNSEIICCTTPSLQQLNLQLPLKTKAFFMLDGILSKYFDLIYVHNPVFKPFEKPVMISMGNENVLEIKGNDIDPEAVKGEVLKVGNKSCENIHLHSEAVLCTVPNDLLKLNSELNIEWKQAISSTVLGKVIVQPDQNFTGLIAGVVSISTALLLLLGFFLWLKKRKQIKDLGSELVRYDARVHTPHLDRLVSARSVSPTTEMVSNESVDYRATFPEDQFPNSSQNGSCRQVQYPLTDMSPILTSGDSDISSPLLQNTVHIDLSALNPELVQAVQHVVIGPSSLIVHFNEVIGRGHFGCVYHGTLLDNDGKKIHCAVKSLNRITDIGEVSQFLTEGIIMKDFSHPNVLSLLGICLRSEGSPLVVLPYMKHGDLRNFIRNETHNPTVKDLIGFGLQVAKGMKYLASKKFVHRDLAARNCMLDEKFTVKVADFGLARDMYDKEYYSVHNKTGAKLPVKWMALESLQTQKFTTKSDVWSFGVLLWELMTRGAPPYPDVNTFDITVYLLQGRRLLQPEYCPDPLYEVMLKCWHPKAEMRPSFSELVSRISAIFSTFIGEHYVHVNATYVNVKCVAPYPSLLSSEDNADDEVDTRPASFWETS
T6 sequence (P08581 25-932 limits assumed, form in doubt): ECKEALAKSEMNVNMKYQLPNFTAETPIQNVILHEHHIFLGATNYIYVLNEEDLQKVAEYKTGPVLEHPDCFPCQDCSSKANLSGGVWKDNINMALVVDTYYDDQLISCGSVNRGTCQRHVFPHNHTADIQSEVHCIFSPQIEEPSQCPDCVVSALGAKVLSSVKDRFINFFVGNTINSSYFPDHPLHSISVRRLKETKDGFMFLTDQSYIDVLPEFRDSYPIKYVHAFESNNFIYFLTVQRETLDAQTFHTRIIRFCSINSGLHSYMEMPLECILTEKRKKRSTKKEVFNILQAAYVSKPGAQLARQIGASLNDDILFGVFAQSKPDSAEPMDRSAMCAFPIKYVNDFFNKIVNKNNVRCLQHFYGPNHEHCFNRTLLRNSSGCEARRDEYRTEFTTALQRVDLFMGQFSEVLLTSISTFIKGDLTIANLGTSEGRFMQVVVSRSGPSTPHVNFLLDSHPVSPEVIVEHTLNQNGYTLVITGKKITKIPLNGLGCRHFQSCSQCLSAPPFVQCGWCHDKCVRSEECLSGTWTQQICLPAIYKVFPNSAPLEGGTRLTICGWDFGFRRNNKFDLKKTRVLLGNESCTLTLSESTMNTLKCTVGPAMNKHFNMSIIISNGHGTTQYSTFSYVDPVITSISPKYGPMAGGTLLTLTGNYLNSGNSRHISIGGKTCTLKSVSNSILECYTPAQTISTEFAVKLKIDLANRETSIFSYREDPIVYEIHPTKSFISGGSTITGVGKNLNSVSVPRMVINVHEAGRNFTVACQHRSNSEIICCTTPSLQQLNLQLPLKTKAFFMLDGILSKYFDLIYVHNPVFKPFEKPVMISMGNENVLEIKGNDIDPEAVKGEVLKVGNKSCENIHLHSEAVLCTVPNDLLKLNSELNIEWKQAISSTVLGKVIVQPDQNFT
T1 sequence (P08581 25-932): as the sequence (P08581 25-932 limits assumed, form in doubt) above

B1: 74C8 chimeric llama-human IgG1 mAb (antibody, V domains shown)
VH: EVQLVESGGGLVQPGGSLRLSCAASGFTFRNYHMSWVRQVPGKGFEWISDINSAGGSTYYADSVKGRFTISRDNAKNTLYLEMNSLKPEDTALYYCARVNVWGVNYWGKGTLVSVSS
VL: QTVVTQEPSLSVSPGGTVTLTCGLSSGSVTTSNYPGWFQQTPGQAPRTLIYNTNSRHSGVPSRFSGSISGNKAALTITGAQPEDEADYYCSLYPGSYTNVFGGGTHLTVL
notes: llama VH on human IgG1 CH1-CH2-CH3, llama VL on human lambda CL
[1]
  IC50: 0.43 nM
  IMAX: 76.9%
[2]
  EC50: 0.208 nM
  EMAX: 73.8 % relative to control
[3]
  scatter score 0-4, HPAF-II, 0.001 nM: 0 score
  scatter score 0-4, HPAF-II, 0.004 nM: 0 score
  scatter score 0-4, HPAF-II, 0.012 nM: 0 score
  scatter score 0-4, HPAF-II, 0.037 nM: 1 score
  scatter score 0-4, HPAF-II, 0.111 nM: 2 score
  scatter score 0-4, HPAF-II, 0.333 nM: 3 score
  scatter score 0-4, HPAF-II, 1.000 nM: 3 score
  scatter score 0-4, HPAF-II, 3.000 nM: 4 score
  scatter score 0-4, HPAF-II, 9.000 nM: 4 score
[4]
  scatter score 0-4, MLP29, 0.001 nM: 0 score
  scatter score 0-4, MLP29, 0.004 nM: 0 score
  scatter score 0-4, MLP29, 0.012 nM: 0 score
  scatter score 0-4, MLP29, 0.037 nM: 1 score
  scatter score 0-4, MLP29, 0.111 nM: 2 score
  scatter score 0-4, MLP29, 0.333 nM: 3 score
  scatter score 0-4, MLP29, 1.000 nM: 3 score
  scatter score 0-4, MLP29, 3.000 nM: 4 score
  scatter score 0-4, MLP29, 9.000 nM: 4 score
[5]
  protection from staurosporine, viability EC50, MCF10A cells: > 32 nM
  protection from staurosporine, viability EMAX, MCF10A cells: 41.7%
[6]
  protection from staurosporine, viability EC50, MLP29 cells: > 32 nM
  protection from staurosporine, viability EMAX, MLP29 cells: 37.5%
[7]
  EC50: 0.235 nM
  EMAX: 85.7 % relative to control
[8]
  phospho-MET ELISA EC50, A549 cells: 0.52 nM
  phospho-MET ELISA EMAX (% HGF activity), A549 cells: 87.6%
[9]
  phospho-MET ELISA EC50, MLP29 cells: 0.41 nM
  phospho-MET ELISA EMAX (% HGF activity), MLP29 cells: 102%
[10]
  IC50: 0.49 nM
  IMAX: 71.5%
[11]
  EC50: 0.116 nM
  EMAX (OD450): 0.896 AU
[12]
  EC50: 0.09 nM
  EMAX (OD450): 0.994 AU
[13]
  branches per spheroid, LOC cells, 0.5 nM: 10.3 branches
  branches per spheroid, LOC cells, 2.5 nM: 17 branches
  branches per spheroid, LOC cells, 12.5 nM: 18.7 branches
[14]
  branches per spheroid, MLP29 cells, 0.5 nM: 17.3 branches
  branches per spheroid, MLP29 cells, 2.5 nM: 15.3 branches
  branches per spheroid, MLP29 cells, 12.5 nM: 22.3 branches

B2: 72F8 chimeric llama-human IgG1 mAb (antibody, V domains shown)
VH: ELQLVESGGGLVQPGGSLRLSCAASGFTFSNYVMSWVRQAPGKGLEWVSDTNSGGSTSYADSVKGRFTISRDNAKNTLYLQMNSLKPEDTALYYCARSFFYGMNYWGKGTQVTVSS
VL: QSALTQPPSLSASPGSSVRLTCTLSSGNNIGSYDISWYQQKAGSPPRYLLNYYTDSRKHQDSGVPSRFSGSKDASANAGLLLISGLQPEDEADYYCSAYKSGSYRWVFGGGTHVTVL
notes: as for B1
[1]
  IC50: 0.45 nM
  IMAX: 77.3%
[2]
  EC50: 0.359 nM
  EMAX: 172 % relative to control
[3]
  scatter score 0-4, HPAF-II, 0.001 nM: 0 score
  scatter score 0-4, HPAF-II, 0.004 nM: 0 score
  scatter score 0-4, HPAF-II, 0.012 nM: 0 score
  scatter score 0-4, HPAF-II, 0.037 nM: 0 score
  scatter score 0-4, HPAF-II, 0.111 nM: 0 score
  scatter score 0-4, HPAF-II, 0.333 nM: 0 score
  scatter score 0-4, HPAF-II, 1.000 nM: 1 score
  scatter score 0-4, HPAF-II, 3.000 nM: 2 score
  scatter score 0-4, HPAF-II, 9.000 nM: 3 score
[4]
  scatter score 0-4, MLP29, 0.001 nM: 0 score
  scatter score 0-4, MLP29, 0.004 nM: 0 score
  scatter score 0-4, MLP29, 0.012 nM: 0 score
  scatter score 0-4, MLP29, 0.037 nM: 0 score
  scatter score 0-4, MLP29, 0.111 nM: 0 score
  scatter score 0-4, MLP29, 0.333 nM: 0 score
  scatter score 0-4, MLP29, 1.000 nM: 1 score
  scatter score 0-4, MLP29, 3.000 nM: 2 score
  scatter score 0-4, MLP29, 9.000 nM: 3 score
[5]
  protection from staurosporine, viability EC50, MCF10A cells: > 32 nM
  protection from staurosporine, viability EMAX, MCF10A cells: 35.8%
[6]
  protection from staurosporine, viability EC50, MLP29 cells: > 32 nM
  protection from staurosporine, viability EMAX, MLP29 cells: 43.8%
[7]
  EC50: 0.371 nM
  EMAX: 156 % relative to control
[8]
  phospho-MET ELISA EC50, A549 cells: 1.51 nM
  phospho-MET ELISA EMAX (% HGF activity), A549 cells: 69.7%
[9]
  phospho-MET ELISA EC50, MLP29 cells: 0.79 nM
  phospho-MET ELISA EMAX (% HGF activity), MLP29 cells: 66.8%
[10]
  IC50: 0.52 nM
  IMAX: 72.8%
[11]
  EC50: 0.048 nM
  EMAX (OD450): 2.9 AU
[12]
  EC50: 0.064 nM
  EMAX (OD450): 2.78 AU
[13]
  branches per spheroid, LOC cells, 0.5 nM: 9 branches
  branches per spheroid, LOC cells, 2.5 nM: 12.3 branches
  branches per spheroid, LOC cells, 12.5 nM: 16 branches
[14]
  branches per spheroid, MLP29 cells, 0.5 nM: 12.7 branches
  branches per spheroid, MLP29 cells, 2.5 nM: 11.7 branches
  branches per spheroid, MLP29 cells, 12.5 nM: 18.7 branches
